The source of these data is the supplement of paper PMC12764529.

± gives the half width of the 95% confidence interval.

A short description of data set [1]: folding stability dG unfold from trypsin proteolysis; higher = more stable. The gist of the method: (§1)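 Designed mini-proteins with no cysteine and under 80 residues were kept only if AlphaFold2 dimer inter-PAE was above 15. In a PA-tagged cDNA display construct, they were digested with trypsin and chymotrypsin and then sequenced. K50 was inferred by Bayesian fitting of counts, and unfolding free energy was derived per protease or combined against a sequence-predicted unfolded-state K50 and a shared folded-state K50.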

Data set [2] in a line: folding stability dG unfold from chymotrypsin proteolysis; higher = more stable. The essentials: as §1
A short description of data set [3]: folding stability dG unfold (combined trypsin and chymotrypsin); higher = more stable. The gist of the method:
as §1

For “SAGGSAGGSAGMLARITLSTPEKPVEYIVPESEVEEYIKKLNLPEDTEVTVTPVDPAALLSAGGSAGGSAGG [r17_395_JUSTAS]”, the “folding stability dG unfold” value stood at 0.574 ± 0.022 kcal/mol in data set [1], 1.8 ± 0.032 kcal/mol in data set [2] and 1.4 ± 0.037 kcal/mol in data set [3].
The corresponding values for “SAGGSAGGSAGMLPLEELLKKNPKPIKVLVKVGDTEYLVEVTPGEKKYTIKVKPLKKSKPSAGGSAGGSAGG [r11_549_TrMRF]” are 1.08 ± 0.026 kcal/mol, 1.55 ± 0.047 kcal/mol and 1.41 ± 0.076 kcal/mol.
Taken in the same sequence, the figures for “SAGGSAGGSAGMPEKVTLTFERSSEVFDPKLGKWRTLPSTEVVEFDSEEEAEELKEKLGLSAGGSAGGSAGG [r11_984_JUSTAS]” were -0.506 ± 0.55 kcal/mol, 0.575 ± 0.36 kcal/mol and 0.123 ± 0.31 kcal/mol.
Consider “SAGGSAGGSAGMPKVEAVDISYSADPNSKSYTITIKSPDGEPIVLTLNSPSEIENLELVLSAGGSAGGSAGG [r11_711_JUSTAS]”, for which the “folding stability dG unfold” value in data set [1] was found to be 1.19 ± 0.026 kcal/mol; in data set [2], 1.34 ± 0.1 kcal/mol; in data set [3] it was 1.34 ± 0.13 kcal/mol.
Taken in the same sequence, the figures for “SAGGSAGGSAGMPLYIIEVEKEDGSKITITIPENMTEEEIKKIAEELGIKKVEIIKKEDLSAGGSAGGSAGG [r11_490_TrROS_Hall]” were 1.91 ± 0.061 kcal/mol, 1.8 ± 0.053 kcal/mol and 1.84 ± 0.087 kcal/mol.
On to “SAGGSAGGSAGMRIVIEVPEDTTVEELAKKLADLGYEVEIRVERDENGRLLVVIEIRPKDSAGGSAGGSAGG [r11_1050_TrROS_Hall]”, for which the “folding stability dG unfold” value in data set [1] turned out to be 2.66 ± 0.088 kcal/mol; in data set [2], 2.88 ± 0.12 kcal/mol; in data set [3], 2.8 ± 0.14 kcal/mol.
For “SAGGSAGGSAGMRIVLRLPRDVPLEALRRELEALGGEVRIETEDDPDGRLLFVVELRPKESAGGSAGGSAGG [r11_1050_TrMRF]”, the results for the “folding stability dG unfold” value in data set [1], in data set [2] and in data set [3] were 1.63 ± 0.061 kcal/mol, 1.81 ± 0.14 kcal/mol and 1.8 ± 0.14 kcal/mol, respectively.
Turning to “SAGGSAGGSAGMRKVVTGKEAVVKLTGIPPEVLEAMSEEELRALVAPLVEAGKVDEIELKSAGGSAGGSAGG [r11_80_JUSTAS]”, the “folding stability dG unfold” value was -0.0624 ± 0.17 kcal/mol in data set [1], 0.898 ± 0.052 kcal/mol in data set [2] and 0.601 ± 0.13 kcal/mol in data set [3].
Taken in the same sequence, the figures for “SAGGSAGGSAGMRPVTSVYYDPNTGRLYARFPDGVVANYELTPDGSVRLVSVAPAHPDLDSAGGSAGGSAGG [r17_61_TrMRF]” were 0.992 ± 0.04 kcal/mol, 1.64 ± 0.059 kcal/mol and 1.42 ± 0.066 kcal/mol.
In the case of “SAGGSAGGSAGMRTVEVKVVFKEGDKEFEKTITITLSPDDPSLEERAKEIAEKGIVVEIIRSAGGSAGGSAG [r3_30_JUSTAS]”, the “folding stability dG unfold” value turned out to be 1.62 ± 0.055 kcal/mol in data set [1], 1.99 ± 0.12 kcal/mol in data set [2] and 1.75 ± 0.15 kcal/mol in data set [3].
The corresponding values for “SAGGSAGGSAGMRVVEVYRLPDGSYRIRFPDGTEVEVSPEELEEVARRLGADEVRVRPELSAGGSAGGSAGG [r11_312_JUSTAS]” are 2.4 ± 0.056 kcal/mol, 4.201 ± 0.041 kcal/mol and 3.78 ± 0.051 kcal/mol.
As to “SAGGSAGGSAGMSALVLKVKIYYPKELFSPEEIEKIKSARIEVEPFLVEVKIDPETGELGSAGGSAGGSAGG [r17_310_TrMRF]”, the “folding stability dG unfold” value amounted to 1.84 ± 0.03 kcal/mol in data set [1], 2.744 ± 0.021 kcal/mol in data set [2] and 2.38 ± 0.061 kcal/mol in data set [3].
As to “SAGGSAGGSAGMTKIVIQYEVPPDKPPPDLEEIKKSLPGAENIEITREELPNGTWVYTVESAGGSAGGSAGG [r17_205_JUSTAS]”, the figures for the “folding stability dG unfold” value in data set [1], in data set [2] and in data set [3] were 0.694 ± 0.19 kcal/mol, 0.405 ± 0.3 kcal/mol and 0.593 ± 0.26 kcal/mol, respectively.
In the case of “SAGGSAGGSAGMTKTITVGDKKVNVTITPLPTPTTKVTITFPDGSTKTVTLPAGTPITLGSAGGSAGGSAGG [r11_525_JUSTAS]”, the entries for the “folding stability dG unfold” value in data set [1], in data set [2] and in data set [3] were 0.566 ± 0.045 kcal/mol, 0.176 ± 0.064 kcal/mol and 0.326 ± 0.054 kcal/mol, respectively.
Consider “SAGGSAGGSAGMTLEELAAADPDAVVPVKVPGTDTDVDVTVEPGAVRFTFPDGTTATVPASAGGSAGGSAGG [r17_128_JUSTAS]”, for which the results for the “folding stability dG unfold” value in data set [1], in data set [2] and in data set [3] were -0.307 ± 0.11 kcal/mol, 0.112 ± 0.19 kcal/mol and -0.046 ± 0.17 kcal/mol, respectively.
Take “SAGGSAGGSAGMTPEEEVEYEIEVPDPNSDNLKTKIKLKFPVGTPEEEIKKKAEELAKKLSAGGSAGGSAGG [r11_516_JUSTAS]”: the “folding stability dG unfold” value in data set [1] came out at 1.67 ± 0.11 kcal/mol; in data set [2] it was 1.67 ± 0.093 kcal/mol; in data set [3], 1.73 ± 0.19 kcal/mol.
For “SAGGSAGGSAGMTPGPAPRPKVTVEPSLSEVPEDDSIVTTTTVTFPDTGETTSSTTTSSASAGGSAGGSAGG [r17_31_JUSTAS]”, the “folding stability dG unfold” value in data set [1] is 0.337 ± 0.064 kcal/mol; in data set [2], 1.24 ± 0.051 kcal/mol; in data set [3] it was 1 ± 0.084 kcal/mol.
As for “SAGGSAGGSAGMTPVEITDPNSDKTYTYDPEKKTLTKYYPGEGKTETFPLTSEEEAKKLLSAGGSAGGSAGG [r11_936_JUSTAS]”, the “folding stability dG unfold” value in data set [1] was -0.536 ± 0.13 kcal/mol; in data set [2], 0.396 ± 0.069 kcal/mol; in data set [3] it was 0.127 ± 0.08 kcal/mol.
Turning to “SAGGSAGGSAGMTTLTVTVPAPPDALTPEDVVALLRPEYPDATITVTREGDTLVVTVTVASAGGSAGGSAGG [r11_7_JUSTAS]”, the results for the “folding stability dG unfold” value in data set [1], in data set [2] and in data set [3] were 3.31 ± 0.058 kcal/mol, 2.39 ± 0.033 kcal/mol and 2.83 ± 0.047 kcal/mol, respectively.
Turning to “SAGGSAGGSAGMTVEVVKSVVPTKTNETVIVTTVTEVEPPTGKVTTLETKTVSTANPELLSAGGSAGGSAGG [r11_777_JUSTAS]”, the “folding stability dG unfold” value is -0.755 ± 0.12 kcal/mol in data set [1], -0.395 ± 0.11 kcal/mol in data set [2] and -0.369 ± 0.23 kcal/mol in data set [3].
In the case of “SAGGSAGGSAGMTYVYPGPDGKEYLAEVDPNIPGAEVTVTPPDTGETVTVPLSQVTEVPPSAGGSAGGSAGG [r11_822_JUSTAS]”, the “folding stability dG unfold” value in data set [1] is 0.56 ± 0.05 kcal/mol; in data set [2], -0.449 ± 0.18 kcal/mol; in data set [3], 0.222 ± 0.063 kcal/mol.
Consider “SAGGSAGGSAGMVFLDPETRLLLVVHPNGEPELVLLEDGRAVLFHPSTGERREIPLAEIGSAGGSAGGSAGG [r11_297_TrMRF]”, for which the figures for the “folding stability dG unfold” value in data set [1], in data set [2] and in data set [3] were -0.195 ± 0.13 kcal/mol, 0.318 ± 0.12 kcal/mol and 0.263 ± 0.12 kcal/mol, respectively.
As for “SAGGSAGGSAGMVIVDPERGYIYIPFPEDIEPEEFIEANKIPEFDIEVLEIGENIPVIKLSAGGSAGGSAGG [r17_323_TrMRF]”, the “folding stability dG unfold” value in data set [1] is 0.357 ± 0.047 kcal/mol; in data set [2] it was -0.0485 ± 0.12 kcal/mol; in data set [3], 0.209 ± 0.096 kcal/mol.
Regarding “SAGGSAGGSAGMVLLKSEEEAEELRKPNVSLSVTPVPPVEVSEGDPNALAYEVELKPPLESAGGSAGGSAGG [r11_168_JUSTAS]”, the figures for the “folding stability dG unfold” value in data set [1], in data set [2] and in data set [3] were 1.49 ± 0.053 kcal/mol, 0.0585 ± 0.17 kcal/mol and 0.86 ± 0.11 kcal/mol, respectively.
Regarding “SAGGSAGGSAGMVTIYADPDGSYTAHFPDGSSASYSSLEEVKANLKAKYPDVKDVVIEKTSAGGSAGGSAGG [r11_806_JUSTAS]”, the “folding stability dG unfold” value in data set [1] stood at 2.17 ± 0.088 kcal/mol; in data set [2], 3.449 ± 0.034 kcal/mol; in data set [3] it was 3.11 ± 0.084 kcal/mol.
Take “SAGGSAGGSAGMVTVGDTEVVIEKDPNSDKYTVTVTPADGTTETLTFDSEEEVERYIEAKSAGGSAGGSAGG [r11_238_JUSTAS]”: the “folding stability dG unfold” value in data set [1] stood at 1.49 ± 0.051 kcal/mol; in data set [2] it was 1.7 ± 0.035 kcal/mol; in data set [3], 1.61 ± 0.052 kcal/mol.
With “SAGGSAGGSAGMVVVERTSAPDPDKPTSYWFYTKTTFFPDGSVLSETKKFPSPAELEKATSAGGSAGGSAGG [r11_792_JUSTAS]”, the “folding stability dG unfold” value is 0.793 ± 0.023 kcal/mol in data set [1], 1.07 ± 0.12 kcal/mol in data set [2] and 0.992 ± 0.07 kcal/mol in data set [3].
Taken in the same sequence, the figures for “SAGGSAGGSAGMVYITKGKDGIWYEAEVDPTKPGAKVKVRHPLTGKEEEITPAEVVAVPPSAGGSAGGSAGG [r11_822_TrMRF]” were 0.141 ± 0.15 kcal/mol, -0.546 ± 0.6 kcal/mol and 0.155 ± 0.42 kcal/mol.
Take “SAGGSAGGSAGMWIDEDTIRRLAALLGYPGKVEVVRLEDGSLLVVVYGDTEPGVLLFPLDSAGGSAGGSAGG [r11_410_TrMRF]”: the “folding stability dG unfold” value in data set [1] is 3.02 ± 0.079 kcal/mol; in data set [2], 2.255 ± 0.017 kcal/mol; in data set [3], 2.59 ± 0.048 kcal/mol.
“SAGGSAGGSAGMYVITIKLPSGEVIKIKTDPKNPEEAIKKLEPQYPPAEFEVKEVPENEISAGGSAGGSAGG [r11_103_JUSTAS]”: the figures for the “folding stability dG unfold” value in data set [1], in data set [2] and in data set [3] were 0.633 ± 0.041 kcal/mol, -0.198 ± 0.26 kcal/mol and 0.254 ± 0.18 kcal/mol, respectively.
The corresponding values for “SAGGSAGGSAGMYYVIKRPGKVEILPEEEVPKVIEEDPNVEVKKFDSEEEAKKALEELLKSAGGSAGGSAGG [r11_60_JUSTAS]” are 0.539 ± 0.039 kcal/mol, 0.793 ± 0.073 kcal/mol and 0.704 ± 0.058 kcal/mol.
For the sequence “SAGGSAGGSAGNIILPFEIESIDIEEETAIDPETGEPVKVKKILIRLKGTGKIIEISFTEKSAGGSAGGSAG [r3_424_TrMRF]”, the “folding stability dG unfold” value was determined as 2.76 ± 0.23 kcal/mol in data set [1], 3.01 ± 0.11 kcal/mol in data set [2] and 2.88 ± 0.26 kcal/mol in data set [3].
In the case of “SAGGSAGGSAGNLKPVSGGGVLKVEVKDPNTDKKETYLVPPNKPDVVLELAKDGYEVEVSSAGGSAGGSAGG [r11_1006_TrMRF]”, the figures for the “folding stability dG unfold” value in data set [1], in data set [2] and in data set [3] were 0.938 ± 0.11 kcal/mol, 0.227 ± 0.14 kcal/mol and 0.639 ± 0.14 kcal/mol, respectively.
Turning to “SAGGSAGGSAGNLKVVDISIWRTDDMRYIMFKLEGDGLTIMIWVPPKEPGKIQIMIFPLDSAGGSAGGSAGG [r11_1046_TrROS]”, the “folding stability dG unfold” value in data set [1] is 3.49 ± 0.23 kcal/mol; in data set [2], 4.51 ± 0.1 kcal/mol; in data set [3] it was 4.34 ± 0.16 kcal/mol.
Regarding “SAGGSAGGSAGNMWDQALRAAREAKDQGDEEVVIHFPPNMKNWVKEWAEDLGWPIKIQPTSAGGSAGGSAGG [r11_371_TrROS]”, the “folding stability dG unfold” value was 0.128 ± 0.17 kcal/mol in data set [1], 0.027 ± 0.25 kcal/mol in data set [2] and -0.0966 ± 0.19 kcal/mol in data set [3].
On to “SAGGSAGGSAGNPNTPVIVKITLPGGKEITLEGTVSEAEEIVKKLEEEGHPFVEVEVYNRSAGGSAGGSAGG [r11_946_JUSTAS]”, for which the “folding stability dG unfold” value in data set [1] was 0.422 ± 0.041 kcal/mol; in data set [2], -0.849 ± 0.3 kcal/mol; in data set [3], 0.0762 ± 0.14 kcal/mol.
